Kd data for 13 variants are collected here from article PMC3796545, “Protein-Protein Interactions as a Strategy towards Protein-Specific Drug Design: The Example of Ataxin-1” (PLoS ONE, 2013).

B1: L-CICp [human] / ATX1 AXH (residues A567-K689 of human ATX1) [human] (parent complex)
chain 1: VFPWHSLVPFLAPSQ
chain 2: GAMAPPTLPPYFMKGSIIQLANGELKKVEDLKTEDFIQSAEISNDLKIDSSTVERIEDSHSPGVAVIQFAVGEHRAQVSVEVLVEYPFFVFGQGWSSCCPERTSQLFDLPCSKLSVGDVCISLTLK

The variants in this test derive from B1. The test can be described thus: ITC; parent: 30 nM. Background: Isothermal titration calorimetry measures the heat released or taken up as one component is titrated into another.
For chain 1 VFPWHSLVPFAAPSQ, the dissociation constant Kd came to 50 nM. As for chain 1 VAPWHSLVPFLAPSQ, the figure is 30 nM; as for chain 1 VFPWHSLVPALAPSQ, 60 nM; as for chain 1 VFAWHSLVPFLAPSQ, 40 nM. With chain 1 VFPWHSLVAFLAPSQ the figure was 40 nM; with chain 1 VFPWHSLAPFLAPSQ, 70 nM. As for chain 1 VFPWHSLVPFLAASQ, the figure is 20 nM; as for chain 1 AFPWHSLVPFLAPSQ, 20 nM. For chain 1 VFPWHSAVPFLAPSQ, the dissociation constant (Kd) is 500 nM. With chain 1 VFPAHSLVPFLAPSQ the figure was 2600 nM; with chain 1 VFPWHALVPFLAPSQ, 10 nM; with chain 1 VFPWHSLVPFLGPSQ, 20 nM. With chain 1 VFPWASLVPFLAPSQ the figure was 50 nM.

By Kd is commonly meant the free concentration of one partner at which half of the binding sites on the other are occupied at equilibrium, for simple one-to-one binding.
